According to article doi:10.1101/2024.07.03.601791:

Target: PR20 modified with a dansyl group at the N-terminus (Dnc-PR20)
Experiment: other fluorescence titration

Sequence of Kapβ2 Δloop (Q92973 9-898, stated change not applied): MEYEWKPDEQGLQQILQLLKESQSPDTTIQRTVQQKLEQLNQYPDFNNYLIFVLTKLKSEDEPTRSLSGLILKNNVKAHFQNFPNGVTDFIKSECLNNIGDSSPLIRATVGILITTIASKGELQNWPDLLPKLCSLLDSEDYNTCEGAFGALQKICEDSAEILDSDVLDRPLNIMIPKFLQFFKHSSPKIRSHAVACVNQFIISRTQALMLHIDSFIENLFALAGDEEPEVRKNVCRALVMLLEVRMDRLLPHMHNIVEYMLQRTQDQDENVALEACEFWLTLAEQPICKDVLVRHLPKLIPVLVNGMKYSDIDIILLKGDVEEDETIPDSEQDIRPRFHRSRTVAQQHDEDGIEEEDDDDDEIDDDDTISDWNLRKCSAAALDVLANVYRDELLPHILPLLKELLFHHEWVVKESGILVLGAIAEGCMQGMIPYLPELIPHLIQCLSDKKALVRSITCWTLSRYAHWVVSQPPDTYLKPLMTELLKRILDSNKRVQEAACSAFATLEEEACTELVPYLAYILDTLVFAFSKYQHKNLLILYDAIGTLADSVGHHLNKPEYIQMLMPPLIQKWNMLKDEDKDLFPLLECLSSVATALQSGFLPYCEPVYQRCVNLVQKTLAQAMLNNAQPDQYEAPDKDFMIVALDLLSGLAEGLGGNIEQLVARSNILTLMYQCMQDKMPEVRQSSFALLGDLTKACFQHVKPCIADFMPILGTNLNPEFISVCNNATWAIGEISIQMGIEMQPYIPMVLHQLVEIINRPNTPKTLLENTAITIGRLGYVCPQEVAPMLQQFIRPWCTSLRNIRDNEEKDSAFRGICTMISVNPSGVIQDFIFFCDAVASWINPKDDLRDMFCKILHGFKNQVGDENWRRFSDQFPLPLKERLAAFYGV

Kapβ2 Δloop (from UniProt Q92973-2 1-890) (natural protein)
Kd: 310 nM
